The nature of this series: yeast display, Sf9 membrane polyspecificity reagent, FACS + sequencing; frameworks hold sequencing errors. In short, it runs like this: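 Sorting gates, low and high (top ~1%), were placed on anti-HA fluorescence to track expression and on streptavidin fluorescence to track reagent binding. A clone's polyreactivity label is taken from the gate it came out of. The reagent was 10% biotinylated, detergent-solubilized Sf9 membrane, applied for 1 hour at 4 °C to galactose-induced yeast display cells.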
For the sequence “QVQLVESGGGLVQAGGSLRLICAASGFIFTLYAMGWYRQAPGTERELVAAISKTGGRTYYADSVKGRFTISRDNAKNTVYLQMNSLKPEDTAVYYCAKDVPSTYAAAYDYWGQGTQVTVSS”, the “polyreactivity (PSR sort gate)” value is on record as “high polyreactivity”. The entry for “QVQLVESGGGLVQAGGSLRLSCAASGSTFIPNAMGWYRQAPGKERELVATIRSGGGRTYYADSVKGRFKISRDNAKNTVYLQMNSLKPEDTAVYYCAAGYYLSVQVYRFDYWGQGTQVTVSS” is “high polyreactivity”; for “QVQLVESGGGLVQAGGSLRLSCAASGSIFYWYAMGWYRQAPGKEREFIADIDWSGGSTYYADSVKGRFTISRDNAKNTVYLQMNSLKPEDTAVYYCAAEARIDIGLYYLDSYYWGQGTQVTVSS” it is “high polyreactivity”. The same measure for “QVQLVESGGGLVQAGGSLRLSCAASGGTFRPYAIGWYRQAPGKERELVATIRSSGGRTYYADSVKGRFTISRDNAKNTVYLQMNSLKPEDTAVYYCAKRAQTYYGYVYWGQGTQVTVSS”: “high polyreactivity”. Turning to “QVQHVESGGGLVQAGGSLRLSCAASARIFYWYVMGWSRQAPGKERELVASISRSGGSTYYADSVKGRFTISRDNAKNTVYVQMNSLKPEDTAVYYCNAGSVYTVSLPGHPYDYWGQGTQVTVSS”, the “polyreactivity (PSR sort gate)” value is given as “low polyreactivity”. The same measure for “QVQLVESGGGLVQAGGSLRLSCAASGFTFASYAMGWYRQAPGKERELVAAISGSGTSTYYADSVKGRFTISRDKAKNTVYLQMNSLKPEHTAVYYCAARRYGYRYDYWGQGTQVTVSS”: “high polyreactivity”; for “QVQLVESGGGLFQAGGSLRLSCAASGRTFKPNTMGWYRQAPGKERELVAAITWRGGSTYYADSVKGRFTISRDNAKNTVYLQMNSLKPEDTAVYYCASARVRTGTGMDYWGQVTQVTVSS”: “low polyreactivity”; for “QVQLVESGGGLVQAGGSLRLSCAASGRTFDYNTMGWYRQAPGKVRELVAAISASGGSTYYADSVKGRFTISRDNAKNTVDLPMNSLKPEDTAVYYCNTYAGVEYYHWGQGTQVTVSS”: “low polyreactivity”. The same measure for “QVQLVESGGGLVQAGGSLRLSCAASGFTFAPYDMGWYRQAPGKERELVATISWSGARTYYADSVKGRFTISRDNAKNTVYLQMNSLKAEDTAVYYCAAAYSSSKSSGNYYYWGQGTQVTVSS”: “high polyreactivity”; for “QVQLVESGGGLVQAGGSLRLSCAASGSIFYTYVMGWYRPAPGKERELVAAISASGVRTYYADSVKGRFTISRDNAKYTFYLQMNSLKPEYTAVYFCAADRQRADYYWGQGTQVTVSS”: “high polyreactivity”.

Take “QVQLVESGGGLVQAGGSLRLSCAASGFTFIKYAMGWYRQAPGKEREFVPTISWNGGNTYYADSVKGRFTISRYNAKNTVYLQMNSLKPEDTAVYYCAARVKYRTRGGTVVSYDYWGQGTQVTVSS”: the “polyreactivity (PSR sort gate)” value is given as “high polyreactivity”. For the sequence “QVQLVESGGGLVQAGGSLRLSCAASGSIFNGNAMGWYRQAPGKERELVAAISSGDSTNYADSVKGRFTISRDNAKNTVYLQMNSLKPEDTAVYYCNAVHRSIARGGGMDYWGQGTQVTVSS”, the “polyreactivity (PSR sort gate)” value is listed as “low polyreactivity”.

For “QVQLVESGGGLVQAGGSLRLSSAASGSNFWYYAMGWYRQSPGKERELVAAISAISGTTYYADSEKGRFTISRDNAKNTVYLQMNSLKPEDTAVYYCNKDASWWTDRSYDYWGQGTQVTVSS”, the “polyreactivity (PSR sort gate)” value is recorded as “low polyreactivity”.

Take “QVQLVESGGGLVQAGGSLRLSCAASGITFGYYAMGWYRQAPGKERELVAAIRSSGGSTYYADSVKGRFTISRDNAKNTVYLQMNSLKPEDTAVYYCNARYRKSSRPGYEPYERYYWGQGTQVTVSS”: the “polyreactivity (PSR sort gate)” value is recorded as “high polyreactivity”. The entry for “QVQLVESGGGLVQAGGSLRLSCAASGFIYVYAMGWYRQPPRKERELVAAITATGDSTYYADSVKGRFTISRDNAKNTVYLQMNSLKPEDTAVYYCAAEWHYFVTMYYWGQGTQVTVSS” is “low polyreactivity”; for “QVQLVESRGGLVQAGGSLRLSCAASGRIYNYYEMGWYRQAHGKESELVAAITWRGGTTYYADSVKGRFTISRDNAKNTVYLQMNSLKPEDTAVYYCATTPRSYRFPPPVGYGYWGQGTQVTVSS” it is “high polyreactivity”; for “QVQLVESGGGLVQAGGSLRLSCAASGNIFKHYAMGWYRQAPGKERELVAAITWSGGSTHYADSVKGLFTISRDNAKNTVYLQMNSLKPEDTAVYYCAARGWWPGTKWTRYDYWGQGTQVTVSS” it is “high polyreactivity”. In the case of “QVQLVESGGGLVQAGGSLRLSCAASGTIFAPNAMGWYRQAPGKERELVAAISRSGGRTYYADSVKGRFTISRDNAKNTVYLQMNSLKPEDTAVYYCAADYKHQRTYGSWGQGTQVTVSS”, the “polyreactivity (PSR sort gate)” value is reported as “high polyreactivity”. On to “QVQLVESGGGLVQAGGSLRLSCAASGFIFRRYAMGWYRQAPGKERELVAAISRGGGSTYYADSVKGRFTISRDNAKNTVYFQMNSLKPEDTAVYYCAARFVPYDAPLNERDYWGQGTQVTVSS”, for which the “polyreactivity (PSR sort gate)” value was “high polyreactivity”. The same measure for “QVQLVESGGGLVQAGGSLRLSCAASGLTFYRYAMGWYRQAPGKERELVAAISFSGGSTYYADSVKGRFTISRDNAKNTVYLQMNSLKPEDTAVYYCAKVDTPGSQRYITPEEGPEYDYWGQGTQVTVSS”: “high polyreactivity”. As to “QVHLVESGGGLVQAGGSLRLSCAASGRIFIYYAMGWYRQAPGKERELVAAISWCGGRTYYADSVKGRFTISRDNAKNTVYLQMNSLKPEDTAVYYCAAGVYTGQHEYDYWGQGTQVTVSS”, the “polyreactivity (PSR sort gate)” value is given as “low polyreactivity”. The same measure for “QVQLVESGGGLVQAGGSLRLSCAASGRIFSNNAMGWYRQAPGKERELVAASNRSGDGTYYADSVKGRFTSSRDHAKNTVYLQMNSLKPEDTAVYYCAVRYYWGYTSYGYWGQGTQVTVSS”: “high polyreactivity”. With “QVQHVESGGGLVQAGGSLRLSCAASGRIFRGYAMGWYRQAPGKERELVAVISYSGTRTYYADSVKGRFTISRDNAKNTVYLQMNSLKPEDTAVYYCNARANGFKDGYWGQGTQVTVSS”, the “polyreactivity (PSR sort gate)” value was “high polyreactivity”. The entry for “QVQLVESGGGLVQAGGILSLSCAASGNTFKGNAMGWYRQAPGKERELVAAISWSTDSTYYADSVKGRFTISRDNAKNSVYLQMNSLKPEDTAIYYCAADYSHLPIAWYYYWGQGTQVTVSS” is “low polyreactivity”; for “QVQLVESGGGLVQAGGSLRLSCAATGGIFGYYSMGWYRQSPGKESELVAAINYSGGSTYYADSVKGRFTISRDNAKNTVYLQMNSLKPEDTAVYYCNAVVRDYTFRYYYWGQGTQVTVSS” it is “low polyreactivity”. The entry for “QLQLEDSGGGLVQAGGILRLSFAASGFTFFYNAMRWYSQAPATEREFDAAISGRGGTTYYADSVKGRFTISRDNAKNTVYLQMNSVKPEDTAVYYCAARSVSTLRYTSGKLRYDYWGQGTQVTVSS” is “high polyreactivity”. The same measure for “QFQLVESGGGLVQAGGSLRLSCAASGSTFTPNVMGWYRQAPGKERELVAAINSSGGSTFYADSVKGRFTISRDNAKNTVYLQMNSLNPEDTAVYYCAASWHTPTVYDEYYYWGQGTQVTVSS”: “low polyreactivity”; for “QVQLVESGGGLVQAGGSLRLSCAASGSTFQYNAMGWYRQAPGKERELVATITWSGGSTYYADSVKGRFTISRDNAKNTVYLQMNSLKPEDTAVYYCAADYYYGYEFGYWGQGTKVTVSS”: “low polyreactivity”.

Regarding “QVQLVESGGGLVQAGGSLRLSCAASGSTFRVNAMGWYRQAPGKERELVAAIRKSGGSTYADSVKGRFTISRDNAKNTVYLQMNSLKPEDTAVYYCNADATAWLGWDDNYWGQGSQVTVSS”, the “polyreactivity (PSR sort gate)” value is “low polyreactivity”.

Take “QVQLVESGGGLVQAGGSLRLSCAASGFIFNRYAMGWYRQAPGKERELVADITGGSTYYADSVKGRFTISRDNAKNTVYLQMNSQKPEDTEVYYCAADRYGFYLESDYWGQGTQVTVSS”: the “polyreactivity (PSR sort gate)” value was “low polyreactivity”.

For the sequence “QVQLGESGGGLVQAGGSVRLSCAASGRTFDTNAMGWYRQAPGKERELVAAISWSAGRTYYADSVKGRFTISRDNAKNTVYLQMNSLKPEDTAVYYCAARPPFIAYSWQKHGYYWGQGTQVTVSS”, the “polyreactivity (PSR sort gate)” value is listed as “low polyreactivity”.

For “QVQLVESGGGLVQAGGSLRLSCAASGRTFVYYAMGWYRQAPGKERELVAAISSGGSTYYADSVKGRFTISRDNAKNTVYLQMNSLKPEDTAVYYCNALRYTHYLLTYGYWGQGTQVTVSS”, the “polyreactivity (PSR sort gate)” value is reported as “high polyreactivity”. The entry for “QVQLVESGGCLVQAGGSLRLSCAASGRTFRWYAMGWYRQAPGKESELVAAINPGGSTNYADSVKGRFSISRDNAKNTVYLQMNSLKPEDTAVYYCNAAGYDALTHNYYWGQGTQVTVSS” is “low polyreactivity”; for “QVQLVESGGGLVQAGGSLRLSCAASGRTFSNAMGWYRQAPGKERELVADISSGGSTNYADSVKGRFTISRDNAKNTVYLQMNSLKPEDTAVYYCAAVSGSLYGYSDDYWGQGTQVTVSS” it is “low polyreactivity”; for “QVQLVESGGGLVQAGGSLRLSCAASGMICGVYAMGWYRQAPGKERELVAAIDGNGSSTYYADSVKGRFTISRDNAKNTVYLQMNSLKPEDTAVYYCAAGYWSYLYYWYDFDYWGQGTQVTVSS” it is “low polyreactivity”. The entry for “QVQHVESGGGLVQAGGSLRLSCAASGFIFPNNAMGWYLQAPGKERELVARISYGGGDTHYADSVKGRFTISRDNAKNTVSLQMNSLKPEDTAVYYCAVKVGQDDYWGQGTQVTVSS” is “low polyreactivity”; for “QVQLVESGGGLVQAGGSLRLSCAASGSTFVGNAMGWYRQAPVKERELVATISNSGGHTFYADSVKGRFTISRDNAKNTVYLQMNSLKPEDTAVYYCAASTSGAIRRDGYWGQGTQVTVSS” it is “low polyreactivity”. The same measure for “QVQLVESGGGLVQAGGSLRLSCAASGSIFDSNAMGWYRQAPGKERELVASITSDGDTYYADSVKGRFTISRDNAKNTVYLQMNSLKPEVTAVYYCAAYVPYSGLDYWGQGTQVTVSS”: “low polyreactivity”. Turning to “QVQLVESGGGLVQPEGSLRLSSAASGRTFDYYALGWYRQAPGKERELVAAITWRGVSTYYADSVKGRFTISRDNAKNTVYLQMNSLKPEDTAVYYCAAYSYPYWQKRPYDYWGQGTQVTVSS”, the “polyreactivity (PSR sort gate)” value was “low polyreactivity”. The entry for “QVQLVESGGGLVQAGGSLRLSCAASGRIFMPYAMGWYRQARGKERELFAAITSTGGSTYYADSVKGRFTISRDNAKNTVYIQMNSQKPEDTAVYYCNARRGYQPHRRDYWGQGTQVTLSS” is “low polyreactivity”. The same measure for “QVQLVESGGGLVQAGGSLRLSCAASGRTIRWYAMGWYRPARGKERELVAVISRGGGSTTYADSVKGRFTISRDNAKNTVYLQMNSLKPEDTAVYYCAAYWGRTGYYGYDYYYWGQGTQVTVSS”: “high polyreactivity”.

The values are drawn from the nanobody polyreactivity screen of Harvey et al. (2022).
